Laboratory results published in publication PMC11808424.

These substances were tested against soluble His‐tagged human LRP4 (low‐density lipoprotein receptor‐related protein 4) (human) (UniProt O75096) (assay: SPR).
Chain of UniProt O75096 (O75096 21-1725): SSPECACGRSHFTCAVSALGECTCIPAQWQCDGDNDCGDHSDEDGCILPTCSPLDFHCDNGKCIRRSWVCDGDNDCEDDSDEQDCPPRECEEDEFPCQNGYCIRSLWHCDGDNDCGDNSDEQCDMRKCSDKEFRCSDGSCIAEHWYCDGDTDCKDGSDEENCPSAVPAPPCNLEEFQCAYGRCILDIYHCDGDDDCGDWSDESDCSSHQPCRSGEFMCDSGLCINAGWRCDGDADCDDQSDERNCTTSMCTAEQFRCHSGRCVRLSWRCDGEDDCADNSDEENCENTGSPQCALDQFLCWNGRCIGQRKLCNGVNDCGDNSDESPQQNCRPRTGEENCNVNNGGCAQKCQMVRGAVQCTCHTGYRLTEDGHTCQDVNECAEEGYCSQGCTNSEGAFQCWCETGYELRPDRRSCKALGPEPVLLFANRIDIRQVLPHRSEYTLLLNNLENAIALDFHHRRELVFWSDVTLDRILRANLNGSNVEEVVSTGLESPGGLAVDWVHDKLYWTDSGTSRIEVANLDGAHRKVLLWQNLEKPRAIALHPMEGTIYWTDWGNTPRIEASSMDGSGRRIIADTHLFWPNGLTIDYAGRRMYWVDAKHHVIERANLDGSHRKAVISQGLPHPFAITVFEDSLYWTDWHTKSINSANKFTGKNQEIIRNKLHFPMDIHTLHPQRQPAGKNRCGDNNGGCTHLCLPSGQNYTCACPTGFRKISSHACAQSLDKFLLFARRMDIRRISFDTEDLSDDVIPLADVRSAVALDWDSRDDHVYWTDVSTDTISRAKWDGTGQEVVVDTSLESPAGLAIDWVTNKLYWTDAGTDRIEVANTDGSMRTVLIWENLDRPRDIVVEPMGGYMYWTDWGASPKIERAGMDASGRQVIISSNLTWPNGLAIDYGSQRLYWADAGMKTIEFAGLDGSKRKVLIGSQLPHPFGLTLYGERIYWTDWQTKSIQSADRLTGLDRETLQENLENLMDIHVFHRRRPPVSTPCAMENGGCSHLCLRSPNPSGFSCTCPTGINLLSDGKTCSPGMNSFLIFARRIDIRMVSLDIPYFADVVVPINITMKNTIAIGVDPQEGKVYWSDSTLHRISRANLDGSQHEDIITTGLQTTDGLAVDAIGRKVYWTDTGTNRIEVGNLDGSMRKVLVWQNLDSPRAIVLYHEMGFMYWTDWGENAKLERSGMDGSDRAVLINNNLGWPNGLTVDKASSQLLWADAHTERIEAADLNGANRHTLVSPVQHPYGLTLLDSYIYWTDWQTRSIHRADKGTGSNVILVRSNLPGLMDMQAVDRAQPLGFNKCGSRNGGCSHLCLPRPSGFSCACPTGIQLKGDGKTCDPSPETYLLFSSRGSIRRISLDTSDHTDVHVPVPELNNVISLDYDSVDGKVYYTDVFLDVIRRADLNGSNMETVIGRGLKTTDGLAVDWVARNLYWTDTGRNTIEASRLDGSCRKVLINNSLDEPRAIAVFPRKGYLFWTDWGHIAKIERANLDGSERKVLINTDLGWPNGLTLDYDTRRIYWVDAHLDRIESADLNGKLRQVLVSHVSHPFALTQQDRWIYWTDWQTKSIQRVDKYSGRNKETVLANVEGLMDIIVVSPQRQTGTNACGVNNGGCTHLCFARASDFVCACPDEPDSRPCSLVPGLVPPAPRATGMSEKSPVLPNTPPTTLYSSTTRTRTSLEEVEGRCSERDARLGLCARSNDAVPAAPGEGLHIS
“purified soluble Scl_(V136D) (natural protein)” was tested, and the Kd was 7.52 µM.
Substance “purified soluble Scl_(K75E) (natural protein)” has a Kd of 35.9 µM.
“purified soluble Scl_(K75Q) (natural protein)” showed a Kd of 20.2 µM.
